Measurements published in publication PMC9408938.

Columns and labels:
[1] = molecular target: T1, Human interferon-gamma receptor chain-1 (human (endogenous in WISH)) (UniProt P15260)
T1 sequence: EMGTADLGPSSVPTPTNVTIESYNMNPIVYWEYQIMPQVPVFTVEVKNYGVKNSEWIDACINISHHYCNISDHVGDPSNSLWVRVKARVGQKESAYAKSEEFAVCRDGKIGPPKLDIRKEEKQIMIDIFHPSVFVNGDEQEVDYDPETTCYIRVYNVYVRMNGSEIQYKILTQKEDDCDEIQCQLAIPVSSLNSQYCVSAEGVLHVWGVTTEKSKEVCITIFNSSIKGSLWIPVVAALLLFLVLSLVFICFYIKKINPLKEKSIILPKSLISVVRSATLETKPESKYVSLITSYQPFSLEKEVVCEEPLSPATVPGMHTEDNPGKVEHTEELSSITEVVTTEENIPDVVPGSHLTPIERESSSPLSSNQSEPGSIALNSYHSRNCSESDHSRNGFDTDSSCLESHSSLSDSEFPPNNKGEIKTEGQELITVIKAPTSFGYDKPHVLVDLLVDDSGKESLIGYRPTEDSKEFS

[2] = molecular target: T1, Human interferon-gamma receptor chain-1 (human (endogenous in WISH)); remark: listed apart in the source

Human interferon-gamma, sequence (P01579 24-161): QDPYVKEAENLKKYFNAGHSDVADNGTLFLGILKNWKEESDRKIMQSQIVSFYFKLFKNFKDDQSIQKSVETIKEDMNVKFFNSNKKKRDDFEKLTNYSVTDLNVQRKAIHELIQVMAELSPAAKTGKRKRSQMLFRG

Substance “Human interferon-gamma (from UniProt P01579 24-161) (ligand)” has a ratio of pSTAT1 to total STAT1 (Western blot, normalised to β-actin) in hIFN γ-stimulated WISH cells cultured under standard conditions (control) (ratio pSTAT1/STAT1) [1] of 3.14, a ratio of pSTAT1 to total STAT1 (Western blot, normalised to β-actin) in hIFN γ-stimulated WISH cells cultured with 30 mM NaClO3 (reduced HS sulfation) (ratio pSTAT1/STAT1) [1] of 1.7 and an antiproliferative activity of hIFN γ (15 ng/mL) by modified kynurenine bioassay, optical density at 490 nm, WISH cells cultured with 30 mM NaClO3 [2] of 0.051 OD 490 nm. It also gave an antiproliferative activity of hIFN γ (15 ng/mL) by modified kynurenine bioassay, optical density at 490 nm, untreated WISH cells [2] of 0.377 OD 490 nm and a lowering of the biological activity (hIFN γ signal, kynurenine bioassay) in WISH cells cultured with NaClO3 against untreated cells [2] of 86%.
